Measurements published in article PMC9482650, “Quantitative fragmentomics allow affinity mapping of interactomes” (Nature Communications, 2022).

Experiments:
Experiment in all cases: holdup assay
Design in all cases: key: below the threshold = too weak to quantify, mostly under pKd 3.1 to 4
LIN7A, O14910 = molecular target: T1, LIN7A, O14910
T1 sequence (O14910 103-200, limits assumed, looked up): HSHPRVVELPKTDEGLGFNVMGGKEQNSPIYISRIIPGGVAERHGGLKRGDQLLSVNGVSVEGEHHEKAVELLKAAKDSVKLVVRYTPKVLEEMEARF

TIAM2, Q8IVF5 = molecular target: T2, TIAM2, Q8IVF5
T2 sequence (Q8IVF5 885-986, limits assumed, looked up): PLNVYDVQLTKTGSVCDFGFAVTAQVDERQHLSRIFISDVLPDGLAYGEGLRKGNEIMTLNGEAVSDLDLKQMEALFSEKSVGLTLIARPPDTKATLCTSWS

GOPC, Q9HD26 = molecular target: GOPC, Q9HD26
NHERF3_1, Q5T2W1 = molecular target: T3, NHERF3_1, Q5T2W1
T3 sequence (Q5T2W1 4-100, limits assumed, looked up): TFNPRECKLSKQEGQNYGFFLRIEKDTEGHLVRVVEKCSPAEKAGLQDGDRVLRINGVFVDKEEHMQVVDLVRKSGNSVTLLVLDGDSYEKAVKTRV

GRID2IP_1, A4D2P6 = molecular target: GRID2IP_1, A4D2P6
Sequence of GRID2IP_1, A4D2P6 (A4D2P6 1-87): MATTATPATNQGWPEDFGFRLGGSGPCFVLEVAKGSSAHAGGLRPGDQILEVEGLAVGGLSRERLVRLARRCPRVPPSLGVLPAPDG

LDB3, O75112 = molecular target: LDB3, O75112
Sequence of LDB3, O75112 (O75112 1-94): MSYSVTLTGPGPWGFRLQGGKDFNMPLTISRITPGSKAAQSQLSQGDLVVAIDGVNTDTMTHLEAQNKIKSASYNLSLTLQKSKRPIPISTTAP

NHERF4_4, Q86UT5 = molecular target: NHERF4_4, Q86UT5
Sequence of NHERF4_4, Q86UT5 (Q86UT5 464-550): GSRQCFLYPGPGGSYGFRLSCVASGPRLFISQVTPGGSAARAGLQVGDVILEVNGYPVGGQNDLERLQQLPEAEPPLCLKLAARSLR

GRIP2_7, Q9C0E4 = molecular target: GRIP2_7, Q9C0E4
Sequence of GRIP2_7, Q9C0E4 (Q9C0E4 934-1023): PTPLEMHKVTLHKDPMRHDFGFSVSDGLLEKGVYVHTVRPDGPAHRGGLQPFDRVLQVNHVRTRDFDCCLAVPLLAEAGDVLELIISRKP

RADIL, Q96JH8 = molecular target: T4, RADIL, Q96JH8
T4 sequence (Q96JH8 971-1071, limits assumed, looked up): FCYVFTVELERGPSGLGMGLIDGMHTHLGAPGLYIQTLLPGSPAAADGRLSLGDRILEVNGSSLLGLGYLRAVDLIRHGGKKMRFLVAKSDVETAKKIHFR

GORASP2, Q9H8Y8 = molecular target: GORASP2, Q9H8Y8
MPDZ_10, O75970 = molecular target: T5, MPDZ_10, O75970
T5 sequence (O75970 1624-1722, limits assumed, looked up): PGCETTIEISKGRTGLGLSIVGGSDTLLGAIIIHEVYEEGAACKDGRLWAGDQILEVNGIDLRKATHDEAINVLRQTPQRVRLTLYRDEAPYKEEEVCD

GRIP1_2, Q9Y3R0 = molecular target: T6, GRIP1_2, Q9Y3R0
T6 sequence (Q9Y3R0 145-248, limits assumed, looked up): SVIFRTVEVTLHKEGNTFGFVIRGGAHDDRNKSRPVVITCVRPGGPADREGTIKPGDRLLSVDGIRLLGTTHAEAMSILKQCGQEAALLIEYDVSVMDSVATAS

APBA1_1, Q02410 = molecular target: T7, APBA1_1, Q02410
T7 sequence (Q02410 651-752, limits assumed, looked up): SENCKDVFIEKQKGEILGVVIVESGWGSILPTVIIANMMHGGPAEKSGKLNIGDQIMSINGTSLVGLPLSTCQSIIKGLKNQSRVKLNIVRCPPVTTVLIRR

TJP1_2, Q07157 = molecular target: TJP1_2, Q07157
Sequence of TJP1_2, Q07157 (Q07157 181-274): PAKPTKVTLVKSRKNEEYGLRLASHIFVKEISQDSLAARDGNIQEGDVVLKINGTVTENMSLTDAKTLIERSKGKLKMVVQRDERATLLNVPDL

DLG2_3, Q15700 = molecular target: DLG2_3, Q15700
DLG1_1, Q12959 = molecular target: DLG1_1, Q12959
AHNAK1, Q09666 = molecular target: AHNAK1, Q09666
Sequence of AHNAK1, Q09666 (Q09666 4-100): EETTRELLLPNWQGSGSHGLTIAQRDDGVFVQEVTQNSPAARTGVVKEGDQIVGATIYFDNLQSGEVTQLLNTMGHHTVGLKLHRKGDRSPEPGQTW

Inadl_1, Q8NI35 = molecular target: Inadl_1, Q8NI35
Sequence of Inadl_1, Q8NI35 (Q8NI35 113-229): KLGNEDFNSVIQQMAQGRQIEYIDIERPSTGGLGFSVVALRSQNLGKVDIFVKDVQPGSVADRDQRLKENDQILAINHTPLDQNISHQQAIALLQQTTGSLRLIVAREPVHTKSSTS

GRIP1_3, Q9Y3R0 = molecular target: T8, GRIP1_3, Q9Y3R0
T8 sequence (Q9Y3R0 247-346, limits assumed, looked up): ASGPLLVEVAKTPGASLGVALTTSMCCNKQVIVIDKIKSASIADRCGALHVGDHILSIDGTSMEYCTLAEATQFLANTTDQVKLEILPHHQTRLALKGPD

TJP1_3, Q07157 = molecular target: TJP1_3, Q07157
Sequence of TJP1_3, Q07157 (Q07157 416-512): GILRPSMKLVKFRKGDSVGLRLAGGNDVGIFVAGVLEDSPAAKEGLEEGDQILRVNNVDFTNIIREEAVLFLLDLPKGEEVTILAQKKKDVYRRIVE

DLG2_2, Q15700 = molecular target: DLG2_2, Q15700
GIPC2, Q8TF65 = molecular target: GIPC2, Q8TF65
Sequence of GIPC2, Q8TF65 (Q8TF65 112-203): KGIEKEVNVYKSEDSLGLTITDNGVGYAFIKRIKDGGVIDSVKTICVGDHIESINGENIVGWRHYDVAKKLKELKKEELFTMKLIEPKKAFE

MAGI2_3, Q86UL8 = molecular target: MAGI2_3, Q86UL8
Sequence of MAGI2_3, Q86UL8 (Q86UL8 600-682): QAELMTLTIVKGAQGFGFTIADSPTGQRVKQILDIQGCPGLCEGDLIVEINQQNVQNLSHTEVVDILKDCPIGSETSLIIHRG

PCLO, Q9Y6V0 = molecular target: T9, PCLO, Q9Y6V0
T9 sequence (Q9Y6V0 4491-4600, limits assumed, looked up): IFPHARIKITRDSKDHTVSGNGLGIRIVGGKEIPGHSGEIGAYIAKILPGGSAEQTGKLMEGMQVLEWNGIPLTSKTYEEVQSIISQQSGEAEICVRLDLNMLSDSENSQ

GRIP1_7, Q9Y3R0 = molecular target: T10, GRIP1_7, Q9Y3R0
T10 sequence (Q9Y3R0 999-1096, limits assumed, looked up): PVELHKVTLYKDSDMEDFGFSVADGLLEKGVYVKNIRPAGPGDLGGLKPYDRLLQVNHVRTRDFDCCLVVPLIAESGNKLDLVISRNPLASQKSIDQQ

DLG1_3, Q12959 = molecular target: DLG1_3, Q12959
MAGI2_2, Q86UL8 = molecular target: MAGI2_2, Q86UL8
Sequence of MAGI2_2, Q86UL8 (Q86UL8 410-522): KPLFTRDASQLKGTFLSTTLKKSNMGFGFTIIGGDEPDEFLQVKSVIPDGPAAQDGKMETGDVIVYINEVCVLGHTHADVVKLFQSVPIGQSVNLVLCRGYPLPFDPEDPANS

SCRIB_3, Q14160 = molecular target: SCRIB_3, Q14160
Sequence of SCRIB_3, Q14160 (Q14160 999-1103): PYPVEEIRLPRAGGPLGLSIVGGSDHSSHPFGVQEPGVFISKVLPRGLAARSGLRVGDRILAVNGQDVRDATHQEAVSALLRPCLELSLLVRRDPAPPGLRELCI

[1] = plain residues with an end cap or a label only (N-terminal biotin on a linker: ado-ado)
[2] = plain residues with an end cap or a label only (N-terminal biotin on a linker: ahx)

B1: CIB2, O75838 (peptide)
chain: DFLSTFHIRI
B1 was tested, and the pKd (LIN7A, O14910; [1]) was “below the threshold”, the pKd (TIAM2, Q8IVF5; [1]) was 4.59 and the pKd (GOPC, Q9HD26; [1]) was “below the threshold”. For the same binder, the pKd (NHERF3_1, Q5T2W1; [1]) was “below the threshold”, the pKd (GRID2IP_1, A4D2P6; [1]) was “below the threshold” and the pKd (LDB3, O75112; [1]) was “below the threshold”. It also gave a pKd (NHERF4_4, Q86UT5; [1]) of 4.58, a pKd (GRIP2_7, Q9C0E4; [1]) of 4.04 and a pKd (RADIL, Q96JH8; [1]) of 4.19. The pKd (GORASP2, Q9H8Y8; [1]) was 4.46, the pKd (MPDZ_10, O75970; [1]) was “below the threshold” and the pKd (GRIP1_2, Q9Y3R0; [1]) was “below the threshold”. The pKd (APBA1_1, Q02410; [1]) was 4.08, the pKd (TJP1_2, Q07157; [1]) was “below the threshold” and the pKd (DLG2_3, Q15700; [1]) was “below the threshold”. The pKd (DLG1_1, Q12959; [1]) was “below the threshold”, the pKd (AHNAK1, Q09666; [1]) was “below the threshold” and the pKd (Inadl_1, Q8NI35; [1]) was 3.91. For the same binder, the pKd (GRIP1_3, Q9Y3R0; [1]) was “below the threshold”, the pKd (TJP1_3, Q07157; [1]) was “below the threshold” and the pKd (DLG2_2, Q15700; [1]) was “below the threshold”. For the same binder, the pKd (GIPC2, Q8TF65; [1]) was “below the threshold”, the pKd (MAGI2_3, Q86UL8; [1]) was “below the threshold” and the pKd (PCLO, Q9Y6V0; [1]) was “below the threshold”. The pKd (GRIP1_7, Q9Y3R0; [1]) was “below the threshold”, the pKd (DLG1_3, Q12959; [1]) was “below the threshold” and the pKd (MAGI2_2, Q86UL8; [1]) was “below the threshold”. The pKd (SCRIB_3, Q14160; [1]) was 3.56.

B2: PTPRG, P23470 (peptide)
chain: DPAESMESLV
In the case of B2, the pKd (LIN7A, O14910; [1]) is reported as 3.7, the pKd (TIAM2, Q8IVF5; [1]) is reported as “below the threshold” and the pKd (GOPC, Q9HD26; [1]) is reported as “below the threshold”. For the same binder, the pKd (NHERF3_1, Q5T2W1; [1]) was 4.7, the pKd (GRID2IP_1, A4D2P6; [1]) was “below the threshold” and the pKd (LDB3, O75112; [1]) was “below the threshold”. For the same binder, the pKd (NHERF4_4, Q86UT5; [1]) was 3.75, the pKd (GRIP2_7, Q9C0E4; [1]) was “below the threshold” and the pKd (RADIL, Q96JH8; [1]) was 4.23. The pKd (GORASP2, Q9H8Y8; [1]) was “below the threshold”, the pKd (MPDZ_10, O75970; [1]) was “below the threshold” and the pKd (GRIP1_2, Q9Y3R0; [1]) was “below the threshold”. For the same binder, the pKd (APBA1_1, Q02410; [1]) was “below the threshold”, the pKd (TJP1_2, Q07157; [1]) was “below the threshold” and the pKd (DLG2_3, Q15700; [1]) was “below the threshold”. For the same binder, the pKd (DLG1_1, Q12959; [1]) was 4.45, the pKd (AHNAK1, Q09666; [1]) was “below the threshold” and the pKd (Inadl_1, Q8NI35; [1]) was “below the threshold”. For the same binder, the pKd (GRIP1_3, Q9Y3R0; [1]) was “below the threshold”, the pKd (TJP1_3, Q07157; [1]) was “below the threshold” and the pKd (DLG2_2, Q15700; [1]) was 4.68. For the same binder, the pKd (GIPC2, Q8TF65; [1]) was 3.95, the pKd (MAGI2_3, Q86UL8; [1]) was 4.54 and the pKd (PCLO, Q9Y6V0; [1]) was “below the threshold”. The pKd (GRIP1_7, Q9Y3R0; [1]) was “below the threshold”, the pKd (DLG1_3, Q12959; [1]) was “below the threshold” and the pKd (MAGI2_2, Q86UL8; [1]) was 4.24. For the same binder, the pKd (SCRIB_3, Q14160; [1]) was 3.92.

B3: FZD10, Q9ULW2 (peptide)
chain: EIPAQSPTCV
With B3 the pKd (LIN7A, O14910; [1]) was 3.48, the pKd (TIAM2, Q8IVF5; [1]) was 3.7 and the pKd (GOPC, Q9HD26; [1]) was 3.94. The pKd (NHERF3_1, Q5T2W1; [1]) was “below the threshold”, the pKd (GRID2IP_1, A4D2P6; [1]) was 3.72 and the pKd (LDB3, O75112; [1]) was “below the threshold”. The pKd (NHERF4_4, Q86UT5; [1]) was “below the threshold”, the pKd (GRIP2_7, Q9C0E4; [1]) was 3.7 and the pKd (RADIL, Q96JH8; [1]) was 4.47. The pKd (GORASP2, Q9H8Y8; [1]) was 3.98, the pKd (MPDZ_10, O75970; [1]) was 3.89 and the pKd (GRIP1_2, Q9Y3R0; [1]) was 3.67. The pKd (APBA1_1, Q02410; [1]) was “below the threshold”, the pKd (TJP1_2, Q07157; [1]) was 3.78 and the pKd (DLG2_3, Q15700; [1]) was “below the threshold”. It also gave a pKd (DLG1_1, Q12959; [1]) of 3.85, a pKd (AHNAK1, Q09666; [1]) of 3.57 and a pKd (Inadl_1, Q8NI35; [1]) of 3.58. For the same binder, the pKd (GRIP1_3, Q9Y3R0; [1]) was “below the threshold”, the pKd (TJP1_3, Q07157; [1]) was 3.65 and the pKd (DLG2_2, Q15700; [1]) was 3.89. The pKd (GIPC2, Q8TF65; [1]) was 3.74, the pKd (MAGI2_3, Q86UL8; [1]) was “below the threshold” and the pKd (PCLO, Q9Y6V0; [1]) was 3.47. It also gave a pKd (GRIP1_7, Q9Y3R0; [1]) of 3.67, a pKd (DLG1_3, Q12959; [1]) of 4 and a pKd (MAGI2_2, Q86UL8; [1]) of 4.17. It also gave a pKd (SCRIB_3, Q14160; [1]) of 3.99.

B4: RTKN, Q9BST9 (peptide)
chain: QPRTWLQSPV
B4 was tested, and the pKd (LIN7A, O14910; [2]) was “below the threshold”, the pKd (TIAM2, Q8IVF5; [2]) was “below the threshold” and the pKd (GOPC, Q9HD26; [2]) was 4.07. For the same binder, the pKd (NHERF3_1, Q5T2W1; [2]) was 4.29, the pKd (GRID2IP_1, A4D2P6; [2]) was “below the threshold” and the pKd (LDB3, O75112; [2]) was “below the threshold”. For the same binder, the pKd (NHERF4_4, Q86UT5; [2]) was “below the threshold”, the pKd (GRIP2_7, Q9C0E4; [2]) was “below the threshold” and the pKd (RADIL, Q96JH8; [2]) was “below the threshold”. For the same binder, the pKd (GORASP2, Q9H8Y8; [2]) was “below the threshold”, the pKd (MPDZ_10, O75970; [2]) was 3.97 and the pKd (GRIP1_2, Q9Y3R0; [2]) was “below the threshold”. For the same binder, the pKd (APBA1_1, Q02410; [2]) was “below the threshold”, the pKd (TJP1_2, Q07157; [2]) was “below the threshold” and the pKd (DLG2_3, Q15700; [2]) was 3.62. The pKd (DLG1_1, Q12959; [2]) was 3.74, the pKd (AHNAK1, Q09666; [2]) was “below the threshold” and the pKd (Inadl_1, Q8NI35; [2]) was “below the threshold”. The pKd (GRIP1_3, Q9Y3R0; [2]) was “below the threshold”, the pKd (TJP1_3, Q07157; [2]) was “below the threshold” and the pKd (DLG2_2, Q15700; [2]) was 4.71. The pKd (GIPC2, Q8TF65; [2]) was “below the threshold”, the pKd (MAGI2_3, Q86UL8; [2]) was “below the threshold” and the pKd (PCLO, Q9Y6V0; [2]) was “below the threshold”. The pKd (GRIP1_7, Q9Y3R0; [2]) was “below the threshold”, the pKd (DLG1_3, Q12959; [2]) was 4.11 and the pKd (MAGI2_2, Q86UL8; [2]) was 4.39. It also gave a pKd (SCRIB_3, Q14160; [2]) of 3.67.
